These results are taken from patent US12637662B2, “Cells, islets, and organoids that evade immune detection and autoimmunity, methods of production and use thereof” (SALK INSTITUTE FOR BIOLOGICAL STUDIES, priority 2018, dated 2026).

For the assay, the system named is postnatal mouse islets. In words: rhWNT4 culture of postnatal islets from WT and β cell specific ERRγKO mice. It counts as cell-based. The settings on record: 100 ng/ml for 5 days; WT but not ERRγKO mice. The source says: FIGS. 8A-8H provide images, graphs, a schematic and a diagram showing results related to WNT4 mediated insulin-GFP expression and WNT4-driven metabolic maturation. FIG. 8A presents representative images of mitochondrial content, indicated by MitoTracker (red) staining, in PBS and WNT4 treated HILOs (scale bar, 100 μm). FIG. 8B presents graphs of flow cytometry quantification of insulin expression (GFP) and mitochondrial content in HILOs treated with recombinant human WNT4 (rhWNT4), WNT5A (rhWNT5A), or conditioned medium (CM) from control or WNT5A overexpressing fibroblasts (n=3). Error bars represent SEM. *p<0.05. […]
Insulin release from intact islets was monitored using batch incubation methods as reported by E. Yoshihara et al., 2016, Cell metabolism, 23:622-634. […] After 30 minutes, the islets were pelleted by centrifugation and secreted insulin levels were determined in the medium by Enzyme Linked Immunosorbent Assay (ELISA), (Rat/mouse Insulin ELISA KIT (Millipore) and Human Insulin ELISA KIT or ultrasensitive human c-peptide ELISA Kit (Millipore) for mouse and human islets, respectively). […] After 30 minutes, the cells were pelleted by centrifugation and c-peptide levels were determined in the supernatant medium using the human c-peptide ELISA KIT (Millipore). […]

B1: WNT4: recombinant human Wnt4 protein (R&D Systems), non-canonical WNT maturation factor (protein, UniProt P56705 23-351, looked up)
Protein Wnt-4: SNWLYLAKLSSVGSISEEETCEKLKGLIQRQVQMCKRNLEVMDSVRRGAQLAIEECQYQFRNRRWNCSTLDSLPVFGKVVTQGTREAAFVYAISSAGVAFAVTRACSSGELEKCGCDRTVHGVSPQGFQWSGCSDNIAYGVAFSQSFVDVRERSKGASSSRALMNLHNNEAGRKAILTHMRVECKCHGVSGSCEVKTCWRAVPPFRQVGHALKEKFDGATEVEPRRVGSSRALVPRNAQFKPHTDEDLVYLEPSPDFCEQDMRSGVLGTRGRTCNKTSKAIDGCELLCCGRGFHTAQVELAERCSCKFHWCCFVKCRQCQRLVELHTCR
On to B1, for which the “mitochondrial metabolic gene expression and GSIS in neonatal islets” value is “induced the expression of mitochondrial metabolic genes and improved GSIS function”.
